Laboratory results from the RNAGym collection of RNA variant scans (doi:10.7554/elife.80360).

B1: HDV Ribozyme (parent)
chain: GGCCGGCAUGGUCCCAGCCUCCUCGCUGGCGCCGGCUGGGCAACAUUCCGAGGGGACCGUCCCCUCGGUAAUGGCGAAUGGGACCCA

Variants of: B1
Assay: self-cleavage, relative activity (ratio to wild type); higher = more cleavage; co-transcriptional

Variant | self-cleavage
GGCCGGCAUGGUCCCAGCCUCCUCGCUGGCGCCGGCUGGGCAACAGUCCGAGGGGAACGUCCCCUCGGUAAUGGCGAAUGGGACCCA [U46G C57A] | 0.635
GGCCGGCAUGGUCCCAGCCUCCUCGCUGCCGCCGGCUGGGCAACAUUCCGAGGGGACCGUCCCCUCGGUAAUGGCGAAUGGGCCCCA [G29C A83C] | 0.142
GGCCGGCAUGGUCCCAGCCUCCUCGCUGGCGCCGGCUGGGCAACAUUCCGAGGGGACCGUCCCCUCGGUAAUGGCCAAUGGGACCAA [G76C C86A] | 0.854
GCCCGGCAUGGUCCCAGCCUCCUCGCUGGCGCCGGCUGGGCAACAUUCCGAGGGGGCCGUCCCCUCGGUAAUGGCGAAUGGGACCCA [G2C A56G] | 0.0332
GGCAGGCAUGGUCCCAGCCUCCUCGCUGGCGCCGGCUGGGCAACAUUCCGAGAGGACCGUCCCCUCGGUAAUGGCGAAUGGGACCCA [C4A G53A] | 0.201
GGCCGGCAUGGUCCCAGCCUCGUCGCCGGCGCCGGCUGGGCAACAUUCCGAGGGGACCGUCCCCUCGGUAAUGGCGAAUGGGACCCA [C22G U27C] | 0
GGCCGGCAUGGUCCCUGCCUCCUCGCUGGCGCCGGCUGGGCAACAUUCCGAGAGGACCGUCCCCUCGGUAAUGGCGAAUGGGACCCA [A16U G53A] | 1.01
GGCCGGCAUGGUCCCAGCAUCCUCGCUGGCGCCGGCUGGGCAACAUUCCGAGGGGACCGUCCCCUAGGUAAUGGCGAAUGGGACCCA [C19A C66A] | 0.211
GGCCGGCAUGGUACCAGCCUCCUCGCUGGCGCCGGCUGGGCAACAUUCCGAGGGGACCGUCCCCUCGAUAAUGGCGAAUGGGACCCA [C13A G68A] | 0.187
GGCCGGCAUGGUCCCCGCCUCCUCGCUGGCGCCGGCUGGGCAACAUUCCGAGGGGACCGUCCCCUCAGUAAUGGCGAAUGGGACCCA [A16C G67A] | 0.506
GGCAGGCAUGGUCCCAGCCUCCUCGCUGGCGCCGGCUGGGCAACAUUCCGAGGGGACCGUCCCCUCGGGAAUGGCGAAUGGGACCCA [C4A U69G] | 0.285
GGCCGGCAUGGUCCCAGCCUCCUCGCUGGCGCCGGCUGGGCAACGUUCCGAGGGGACCGUCGCCUCGGUAAUGGCGAAUGGGACCCA [A45G C62G] | 0.587
GGCCGGCAUGGUCCCAGCCUCCUCGCUGGCGCCGGCUGGGCAACAUUCCGAGGGGACUGUCUCCUCGGUAAUGGCGAAUGGGACCCA [C58U C62U] | 0.867
GGCCGGAAUGGUCCCAGCCUCCUCGCUGGCGCCGGCUGGGCAACAUUCCGAGGGUACCGUCCCCUCGGUAAUGGCGAAUGGGACCCA [C7A G55U] | 0.4
GGCGGGCAUGGUCGCAGCCUCCUCGCUGGCGCCGGCUGGGCAACAUUCCGAGGGGACCGUCCCCUCGGUAAUGGCGAAUGGGACCCA [C4G C14G] | 0
GGCCGGCAUGCUCCCACCCUCCUCGCUGGCGCCGGCUGGGCAACAUUCCGAGGGGACCGUCCCCUCGGUAAUGGCGAAUGGGACCCA [G11C G17C] | 0.0536
GGCCGGCACGGUCCCAGCCUCCUCGCUGGCGCCGGCUGGGCAACAUUCCGAGGGGACCGUCCCCUCGGUAAUGGCGAAUGGGACCCC [U9C A87C] | 0.813
UGCCGGCAUGGUCCCAGCCUCCUCGCUGGCGCCGGCUGGGCAACAUUCCGAGGGGACCGUCCCCUCGGUAAUGGCGAAUUGGACCCA [G1U G80U] | 0.479
GGCCGGCAUGGUCCCAGCCUCCUCGCUGGCGCAGGCUGGGCAACAUUCCGAGGGGACCGUCCCAUCGGUAAUGGCGAAUGGGACCCA [C33A C64A] | 0.339
GGGCGGCAUGGUCCCAGCCUCGUCGCUGGCGCCGGCUGGGCAACAUUCCGAGGGGACCGUCCCCUCGGUAAUGGCGAAUGGGACCCA [C3G C22G] | 0
GGCCGGCAUGGUCCCAGCCUCCUCGCUGGCGCCGGCUGGGCAACAUUCCGAGGGGACCGUCCCCUCGGUCAUGGCGAAGGGGACCCA [A70C U79G] | 0.554
GGCCGGCAUGGUCCCAGCCUCCUCGCUGGCGGCGGCUGGGCAACAUUCCGAGGGGACCAUCCCCUCGGUAAUGGCGAAUGGGACCCA [C32G G59A] | 0.0489

Variant | self-cleavage
GGCCGGCAUGGGCCCAGCCUCCUCGCUGGCGCCGGCUGGGCAACAUUCCGAGGGGACCGUCCCCUCGGUAAUGGCUAAUGGGACCCA [U12G G76U] | 1.17
UGCCGGCAUGGUCCCAUCCUCCUCGCUGGCGCCGGCUGGGCAACAUUCCGAGGGGACCGUCCCCUCGGUAAUGGCGAAUGGGACCCA [G1U G17U] | 0.309
GGCCGGCAUGGUCCCAUCCUCCUGGCUGGCGCCGGCUGGGCAACAUUCCGAGGGGACCGUCCCCUCGGUAAUGGCGAAUGGGACCCA [G17U C24G] | 0.128
GGCCGGCAUGGUCCCAGCCUCCUCGCUGGCGCCGGCUGGGCAACAUUCCGACGGGACCGUCCCCUCGGUAAUGGCGAAUGGGUCCCA [G52C A83U] | 0.389
GGCCGGCAUGGUCCCAGCCUCCUCGCUGGCGCCGGCUGGGCAACAUUCCGAGGAGACCGUCCCCUCGGUAAUGGCGAAUGCGACCCA [G54A G81C] | 0.26
GGCCGGCAUGGUGCCAGCCUCCUCGCUGGCGCCCGCUGGGCAACAUUCCGAGGGGACCGUCCCCUCGGUAAUGGCGAAUGGGACCCA [C13G G34C] | 0.178
GGCCGGCAUGGGCCCAGCCUCCUCGCUGGCGCCGGAUGGGCAACAUUCCGAGGGGACCGUCCCCUCGGUAAUGGCGAAUGGGACCCA [U12G C36A] | 0.156
GGCCGGCAUGGUCCCAGCCUCCUCGAUGGCGCCGGCUGGGCAACAUUCCGAGGGGACCGUCCCCUCGGUAAUGGCGUAUGGGACCCA [C26A A77U] | 0.597
GGCCGGCAUGGUCCCAGCCUCCUCGCUGGCGCCCGCUGGGCAACAUUCCGAGGGGACCGUCCCCUUGGUAAUGGCGAAUGGGACCCA [G34C C66U] | 0.266
GGCCGGCAUGGUACCAGCCUCCUCGCUGGCGCCGGCUGGGCAACAUUCCGAGGGGACCGUCCCUUCGGUAAUGGCGAAUGGGACCCA [C13A C64U] | 0.242
GGCCGGCAUGGUCCCAGCCUCCUCGCUGGCGCCGGCUGGGCAACAUUCCGAGGGGACCGUCCCCUCGAUAAUGGCGGAUGGGACCCA [G68A A77G] | 0.743
GGCCGGCAUGGUCCCAGCCUCCUCUCUGGCGCCGGCUGGGCAACAUUCCGAGGGGACCGUCCCCUCGGUAAUGCCGAAUGGGACCCA [G25U G74C] | 0.0308
GGCCGGCAUGGUCCCAGCCUCCUCGCUGGCGCCGGCUGGGCUACAUUCCGAGGGGACGGUCCCCUCGGUAAUGGCGAAUGGGACCCA [A42U C58G] | 0.443
GGCCGGCAUGGUCCCAGCCUCCUCACUGGCGCCGGCUGGGCAACAUUACGAGGGGACCGUCCCCUCGGUAAUGGCGAAUGGGACCCA [G25A C48A] | 0.491
GGCCGGCAUGGUCCCAGCCUCCUCGAUGGCGCCGGCUGGGCAACAUUCCGAGGGGACCGUCCCCUCGGUAAUGGCGAAUGGGACACA [C26A C85A] | 0.997
GGCCGGCAUGGUGCCAGCCUCCUCGCUGGCGCCGGCUGGGCAACAUUCCGAGGGGACCGUCCCCUCGAUAAUGGCGAAUGGGACCCA [C13G G68A] | 0
GGCCGGCAUGGUCCCAGCCUCAUCGCUGGCGCCGGCUGGGCAACAUUCCGAGGGGACCGUCCCCUCGGUAAUGGCGAAUGGGAGCCA [C22A C84G] | 0.17
GGCCGGCACGGUCCCAGCCUCCUCGCUGGCGCCGGCUGGGCAACAAUCCGAGGGGACCGUCCCCUCGGUAAUGGCGAAUGGGACCCA [U9C U46A] | 1.06
GGCCGGCAUGGUCCCAGCCUCCUCGCUGGCGCCGGCUGGGCAACAUUCCGAGGGGACCGUCCCCUCGGUAAUGGCGAGUGGGACCUA [A78G C86U] | 0.643
GGCCGGCAUGGUCCCAGCCUCCUCGCUGGCGCCGGCUGGGCAACAUUCCGAGGGGACCGUCCCCUCGGUAAUGGCGAAUGGGACCAC [C86A A87C] | 0.855
UGCCGGCAUGGUCCCAGCCUCCUCGCUGGCGCCGGCUGGGCAACAUUCCGAGGGGACCGUCCCCUCGCUAAUGGCGAAUGGGACCCA [G1U G68C] | 0.431
GGCCCGCAUGGUCCCAGCCUCCUCGCUGGCGCCGGCUGGGCAACUUUCCGAGGGGACCGUCCCCUCGGUAAUGGCGAAUGGGACCCA [G5C A45U] | 0.131

Variant | self-cleavage
GGCCGGCAUGGUCCCAGCCUCCUCGCUGGCGCCGGCUGGGCAACAUGCCGAGGGGACCCUCCCCUCGGUAAUGGCGAAUGGGACCCA [U47G G59C] | 1.16
GGCCGGCAUUGUCCCAGCCUCCUCGCUGGCGCCGGCUAGGCAACAUUCCGAGGGGACCGUCCCCUCGGUAAUGGCGAAUGGGACCCA [G10U G38A] | 0.103
GGCCGGCAUGGUCCCAGCCUCCUCGCUGGCGCCGGCUGGGCAACAUUCCGAGGGGUCCGUCCCCUCGAUAAUGGCGAAUGGGACCCA [A56U G68A] | 0.819
GGCCGGCUUGGUCCCAGCCUCCUCGCUGGCGCCGGCUGGGCUACAUUCCGAGGGGACCGUCCCCUCGGUAAUGGCGAAUGGGACCCA [A8U A42U] | 0.314
GGCCGGCAUGGUCCCAGCCUCCUCGCUGGAGCCGGCUGGGCAACAUUCCGAGGGGACCGUCCCCUCGGUAAUGGCGUAUGGGACCCA [C30A A77U] | 0.0354
GGCCGGCAUGGUCCCCGCCUCCUAGCUGGCGCCGGCUGGGCAACAUUCCGAGGGGACCGUCCCCUCGGUAAUGGCGAAUGGGACCCA [A16C C24A] | 0.277
GGCAGGCAUGGUCCCAGCCUCCUCGCUGGCGCCGGCUGGGCAACAUUCCGAGGGGACCGUCCCCUCGGUAAUGGCGAGUGGGACCCA [C4A A78G] | 0.147
GGCCGGCAUGGUCCCAGCCUCCACGCUGGCGCCGGCUGGGCAACAUUCCGAGGGGACCGUCCCCUCGGUAAUGGCGAAUUGGACCCA [U23A G80U] | 0.113
GGCCGGCAGGGUCCCAGCCUCCUCGCUGGCGCCGGCUGGGCAACAUUCUGAGGGGACCGUCCCCUCGGUAAUGGCGAAUGGGACCCA [U9G C49U] | 0.776
GGCCGGUAUGGUCCCAGCCUCCUCGCUGGCGCCGGCUGGGCAACAUUCCGAGGGGACCGUCCCCUCGGUAAAGGCGAAUGGGACCCA [C7U U72A] | 0.604
GGCCGGCAUGGUCCCAGCCUCCUAGCUGGCGCCGGCUGGGCAACAUUCCGAGGGGACGGUCCCCUCGGUAAUGGCGAAUGGGACCCA [C24A C58G] | 0.855
GGCCGGCAUGGUCCCAGCCUCCUCGCUGGCGCCGGCUUGGCAACAUUCCGAGGGGACCGUCUCCUCGGUAAUGGCGAAUGGGACCCA [G38U C62U] | 0.337
GGCCGGCAUGGUCCCAGCCUCCUCGCUGGCGCCGGCUUGGCAACAUUCCGAGGGGACCGUCCCCUUGGUAAUGGCGAAUGGGACCCA [G38U C66U] | 0.175
GGCCGGCAUGGUCCCAGCUUCCUCGCUGGCGCCGGCUGGGCAACAUUCCGAGGGGACCGUCCCAUCGGUAAUGGCGAAUGGGACCCA [C19U C64A] | 0.0554
GGCCGGCAAGGUCCCAGCCUCCUCGCUGGCGCCGGCUGGGCAACAUUCCGAGGGGACCGUCCCCUCGGAAAUGGCGAAUGGGACCCA [U9A U69A] | 0.87
GGCCGGCAUGGUCCUAGCCUCCUCGCUGGCGCCGGCUGGGCAACAUUACGAGGGGACCGUCCCCUCGGUAAUGGCGAAUGGGACCCA [C15U C48A] | 1.17
GGCCGGCAUGGUCCAAGCCUCCUCGCUGGCGCCGGCUGGGAAACAUUCCGAGGGGACCGUCCCCUCGGUAAUGGCGAAUGGGACCCA [C15A C41A] | 0.655
GGCCGGCAUGGUCCCAGCCUCCUCGCUGGCGCCGGCUGGGCAAAAUUCCGAGGGGACCGUCCCCUCGGUAAUGGCGUAUGGGACCCA [C44A A77U] | 0.203
GGCCGGCAUGGUCCCAGCCUCCUAGUUGGCGCCGGCUGGGCAACAUUCCGAGGGGACCGUCCCCUCGGUAAUGGCGAAUGGGACCCA [C24A C26U] | 1.05
GGCCGGCAUGGUCCCCGCCUCCUCGCUGGCGCCGGCUGAGCAACAUUCCGAGGGGACCGUCCCCUCGGUAAUGGCGAAUGGGACCCA [A16C G39A] | 0.156
